Laboratory results: paper doi:10.1101/2023.09.21.558871, “Protein G-quadruplex interactions and their effects on phase transitions and protein aggregation”

Biological target: T1, Znf706 A2C-AF488 (Homo sapiens, UniProt Q9Y5V0 1-76, A2C)
T1 sequence: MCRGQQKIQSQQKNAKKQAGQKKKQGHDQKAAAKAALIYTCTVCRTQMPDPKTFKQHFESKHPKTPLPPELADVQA
Test: fluorescence anisotropy; 20 mM NaPi, 100 mM KCl, 0.05% NaN3, pH 7.4, 25 C (FP/anisotropy); unfolded G4: 20 mM Tris-HCl, 100 mM LiCl, pH 7.4; G4C2 also 20 mM NaPi, 100 mM NaCl, pH 7.4; NMR at 4 C or 37-50 C with 7.5% D2O
Settings: protein: recombinant; tags: AF488 label on Cys; His6-SUMO cleaved

AAAAAAAAAAAAAAAAAAAA (ssDNA) [polyA]
binding result: no binding

TTTTTTTTTTTTTTTTTTTT (ssDNA) [polyT]
binding result: no binding
